The values that follow come from paper PMC314469, “Protein Interaction Networks by Proteome Peptide Scanning” (PLoS Biology, 2004).

T1: Boi1 SH3 (BOI1_YEAST), P38041
T1 chain: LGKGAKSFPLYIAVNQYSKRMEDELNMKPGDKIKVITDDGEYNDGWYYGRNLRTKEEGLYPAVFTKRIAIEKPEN

T2: Boi2 SH3 (BOI2_YEAST), P39969
T2 chain: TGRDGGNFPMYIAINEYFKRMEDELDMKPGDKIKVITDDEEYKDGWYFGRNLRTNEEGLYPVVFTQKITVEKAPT

T3: Myo5 SH3 (MYO5_YEAST), Q04439
T3 chain: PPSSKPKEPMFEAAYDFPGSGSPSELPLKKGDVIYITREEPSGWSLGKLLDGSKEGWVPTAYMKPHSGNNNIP

T4: Rvs167 SH3 (RV167_YEAST), P39743
T4 chain: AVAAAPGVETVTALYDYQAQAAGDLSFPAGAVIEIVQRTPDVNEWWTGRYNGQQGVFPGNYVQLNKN

T5: Yfr024 SH3 (LSB3_YEAST), P43603
T5 chain: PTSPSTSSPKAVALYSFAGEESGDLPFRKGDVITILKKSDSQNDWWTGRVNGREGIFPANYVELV

T6: Yhr016c SH3 (YSC84_YEAST), P32793
T6 chain: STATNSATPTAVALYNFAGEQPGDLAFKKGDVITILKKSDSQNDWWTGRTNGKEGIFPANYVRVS

In the first assay the target is T1, Boi1 SH3 (BOI1_YEAST), P38041. As to the kind of experiment: SPOT array.
SNYSKIFPGIPISL [YOR245C 211-224] had a normalised SPOT signal, Boehringer light units (BLU); mean over the file's lines of this peptide of 41.

Take AVVYKLKPYIPSLS [YGR284C 61-74]: the normalised SPOT signal, Boehringer light units (BLU); mean over the file's lines of this peptide came to 99.5.

SAKSKSRPNTPGSD [YIR007W 739-752] showed a normalised SPOT signal, Boehringer light units (BLU); mean over the file's lines of this peptide of 1740.

As to SNRARYLPQNPDII [YBR195C 132-145], the normalised SPOT signal, Boehringer light units (BLU); mean over the file's lines of this peptide stood at 386.

As to SFKTKFAPEAPDLF [YDL195W 303-316], the normalised SPOT signal, Boehringer light units (BLU); mean over the file's lines of this peptide stood at 59.6.

The molecule DEFNRNTPPQPSLL [YPL084W 526-539] showed a normalised SPOT signal, Boehringer light units (BLU); mean over the file's lines of this peptide of 73.9.

In turn, SRHLKLVPSTPMDI [YBR128C 258-271] gave a normalised SPOT signal, Boehringer light units (BLU); mean over the file's lines of this peptide of 441.

The target in a further assay is T2, Boi2 SH3 (BOI2_YEAST), P39969. Put plainly: SPOT array.
With SNYSKIFPGIPISL [YOR245C 211-224], the normalised SPOT signal, Boehringer light units (BLU); mean over the file's lines of this peptide amounted to 25.9.

Regarding AVVYKLKPYIPSLS [YGR284C 61-74], the normalised SPOT signal, Boehringer light units (BLU); mean over the file's lines of this peptide was 24.9.

SAKSKSRPNTPGSD [YIR007W 739-752]: the normalised SPOT signal, Boehringer light units (BLU); mean over the file's lines of this peptide amounted to 23.7.

SNRARYLPQNPDII [YBR195C 132-145]: the normalised SPOT signal, Boehringer light units (BLU); mean over the file's lines of this peptide is 45.5.

SFKTKFAPEAPDLF [YDL195W 303-316] had a normalised SPOT signal, Boehringer light units (BLU); mean over the file's lines of this peptide of 15.

With DEFNRNTPPQPSLL [YPL084W 526-539], the normalised SPOT signal, Boehringer light units (BLU); mean over the file's lines of this peptide amounted to 33.7.

Consider SRHLKLVPSTPMDI [YBR128C 258-271], for which the normalised SPOT signal, Boehringer light units (BLU); mean over the file's lines of this peptide was found to be 102.

The target of a further assay is T3, Myo5 SH3 (MYO5_YEAST), Q04439. Put plainly: SPOT array.
The molecule SNYSKIFPGIPISL [YOR245C 211-224] returned a normalised SPOT signal, Boehringer light units (BLU); mean over the file's lines of this peptide of 49.2.

Take AVVYKLKPYIPSLS [YGR284C 61-74]: the normalised SPOT signal, Boehringer light units (BLU); mean over the file's lines of this peptide came out at 112.

As to SAKSKSRPNTPGSD [YIR007W 739-752], the normalised SPOT signal, Boehringer light units (BLU); mean over the file's lines of this peptide was found to be 153.

SNRARYLPQNPDII [YBR195C 132-145]: the normalised SPOT signal, Boehringer light units (BLU); mean over the file's lines of this peptide was 244.

On to SFKTKFAPEAPDLF [YDL195W 303-316], for which the normalised SPOT signal, Boehringer light units (BLU); mean over the file's lines of this peptide worked out at 209.

Regarding DEFNRNTPPQPSLL [YPL084W 526-539], the normalised SPOT signal, Boehringer light units (BLU); mean over the file's lines of this peptide came out at 118.

SRHLKLVPSTPMDI [YBR128C 258-271]: the normalised SPOT signal, Boehringer light units (BLU); mean over the file's lines of this peptide was found to be 362.

In another assay the target is T4, Rvs167 SH3 (RV167_YEAST), P39743. As to the kind of experiment: SPOT array.
SNYSKIFPGIPISL [YOR245C 211-224] yielded a normalised SPOT signal, Boehringer light units (BLU); mean over the file's lines of this peptide of 84.8.

Molecule AVVYKLKPYIPSLS [YGR284C 61-74] yielded a normalised SPOT signal, Boehringer light units (BLU); mean over the file's lines of this peptide of 31.8.

As to SAKSKSRPNTPGSD [YIR007W 739-752], the normalised SPOT signal, Boehringer light units (BLU); mean over the file's lines of this peptide is 129.

On to SNRARYLPQNPDII [YBR195C 132-145], for which the normalised SPOT signal, Boehringer light units (BLU); mean over the file's lines of this peptide was 36.2.

Consider SFKTKFAPEAPDLF [YDL195W 303-316], for which the normalised SPOT signal, Boehringer light units (BLU); mean over the file's lines of this peptide is 46.5.

As for DEFNRNTPPQPSLL [YPL084W 526-539], the normalised SPOT signal, Boehringer light units (BLU); mean over the file's lines of this peptide turned out to be 14.4.

SRHLKLVPSTPMDI [YBR128C 258-271] gave a normalised SPOT signal, Boehringer light units (BLU); mean over the file's lines of this peptide of 83.7.

The target in the next assay is Sho1 SH3 (SHO1_YEAST), P40073. Put plainly: SPOT array.
Sho1 SH3 (SHO1_YEAST), P40073, sequence (P40073 295-366): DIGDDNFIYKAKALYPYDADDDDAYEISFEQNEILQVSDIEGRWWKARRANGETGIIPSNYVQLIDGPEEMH
In turn, SNYSKIFPGIPISL [YOR245C 211-224] gave a normalised SPOT signal, Boehringer light units (BLU); mean over the file's lines of this peptide of 27.6.

The molecule AVVYKLKPYIPSLS [YGR284C 61-74] yielded a normalised SPOT signal, Boehringer light units (BLU); mean over the file's lines of this peptide of 93.3.

The molecule SAKSKSRPNTPGSD [YIR007W 739-752] returned a normalised SPOT signal, Boehringer light units (BLU); mean over the file's lines of this peptide of 146.

Molecule SNRARYLPQNPDII [YBR195C 132-145] gave a normalised SPOT signal, Boehringer light units (BLU); mean over the file's lines of this peptide of 35.8.

SFKTKFAPEAPDLF [YDL195W 303-316] yielded a normalised SPOT signal, Boehringer light units (BLU); mean over the file's lines of this peptide of 35.8.

In turn, DEFNRNTPPQPSLL [YPL084W 526-539] registered a normalised SPOT signal, Boehringer light units (BLU); mean over the file's lines of this peptide of 14.3.

In turn, SRHLKLVPSTPMDI [YBR128C 258-271] yielded a normalised SPOT signal, Boehringer light units (BLU); mean over the file's lines of this peptide of 225.

Another assay concerns the target T5, Yfr024 SH3 (LSB3_YEAST), P43603. Put plainly: SPOT array.
As to SNYSKIFPGIPISL [YOR245C 211-224], the normalised SPOT signal, Boehringer light units (BLU); mean over the file's lines of this peptide was determined as 112.

In the case of AVVYKLKPYIPSLS [YGR284C 61-74], the normalised SPOT signal, Boehringer light units (BLU); mean over the file's lines of this peptide came to 132.

SAKSKSRPNTPGSD [YIR007W 739-752] gave a normalised SPOT signal, Boehringer light units (BLU); mean over the file's lines of this peptide of 122.

In turn, SNRARYLPQNPDII [YBR195C 132-145] gave a normalised SPOT signal, Boehringer light units (BLU); mean over the file's lines of this peptide of 304.

For SFKTKFAPEAPDLF [YDL195W 303-316], the normalised SPOT signal, Boehringer light units (BLU); mean over the file's lines of this peptide stood at 23.2.

For DEFNRNTPPQPSLL [YPL084W 526-539], the normalised SPOT signal, Boehringer light units (BLU); mean over the file's lines of this peptide is 73.4.

The molecule SRHLKLVPSTPMDI [YBR128C 258-271] returned a normalised SPOT signal, Boehringer light units (BLU); mean over the file's lines of this peptide of 546.

The next assay concerns the target T6, Yhr016c SH3 (YSC84_YEAST), P32793. Put plainly: SPOT array.
In the case of SNYSKIFPGIPISL [YOR245C 211-224], the normalised SPOT signal, Boehringer light units (BLU); mean over the file's lines of this peptide worked out at 60.1.

With AVVYKLKPYIPSLS [YGR284C 61-74], the normalised SPOT signal, Boehringer light units (BLU); mean over the file's lines of this peptide turned out to be 32.4.

On to SAKSKSRPNTPGSD [YIR007W 739-752], for which the normalised SPOT signal, Boehringer light units (BLU); mean over the file's lines of this peptide turned out to be 0.

SNRARYLPQNPDII [YBR195C 132-145]: the normalised SPOT signal, Boehringer light units (BLU); mean over the file's lines of this peptide turned out to be 47.2.

Consider SFKTKFAPEAPDLF [YDL195W 303-316], for which the normalised SPOT signal, Boehringer light units (BLU); mean over the file's lines of this peptide was determined as 19.

Molecule DEFNRNTPPQPSLL [YPL084W 526-539] registered a normalised SPOT signal, Boehringer light units (BLU); mean over the file's lines of this peptide of 25.1.

In turn, SRHLKLVPSTPMDI [YBR128C 258-271] yielded a normalised SPOT signal, Boehringer light units (BLU); mean over the file's lines of this peptide of 40.
